Laboratory results: PMC2978346

Biological target: His6-PfSSB (Plasmodium falciparum 3D7, UniProt Q8I415 77-284)
Assay: EMSA

B1: 70-mer ssDNA oligonucleotide (ssDNA)
DNA: CTGCCACACACCACCAAAGCTAACTGACAGGAGAATCCAGATGGATCATTTAAAGCATTTGCAACAATTG
B1: binds.
